The record followed here is patent publication US20250188193A1.

For assay [1], the target named is Rituximab G2 (galactosylated afucosylated glycoform). The assay can be described thus: SPR; drawn table, KD (G2). For orientation: SPR reads the build-up and loss of mass on a sensor chip optically.
Assay [2] shares this target. As to the kind of experiment: SPR (Biacore T200), 1:1 Langmuir kinetic fit.
The target of assay [3] is Rituximab G2F (galactosylated fucosylated glycoform). The assay can be described thus: SPR (Biacore T200), 1:1 Langmuir kinetic fit.
Assay [4] deals with Rituximab G2 (galactosylated afucosylated glycoform). As to the kind of experiment: SPR, 1:1 Langmuir global fit, 1024 to 32 nM.

B1: E2 (VHH)
VHH: QVQLQESGGGLVQAGGSLRLSCAASSYISRYHTMGWYRQAPGKERSFVAGITWGGLTYYADSVKGRFTVSRDNAKNTVYLQMNSLKPEDTAVYYCAVDGGTRADPYHYYWGQGTQVTVSS
Turning to B1, in assay [1], the Kd was 4740 nM.

B2: E4 (VHH)
VHH: QVQLQESGGGLVQAGGSLRLSCAASPYISRYHTMGWYRQAPGKEREFVAAITWGGSTYYADSVKGRFTISRDNAKNTVYLQMNSLKPEDTAVYYCAVDGGTYADPYHYYWGQGTQVTVSS
B2 showed an equilibrium dissociation constant (Kd) in assay [1] of 2480 nM.

B3: D3 (VHH, not shown: small tags and cut ends)
VHH: QVQLQESGGGLVQAGGSLRLSCAASGNISADRYMGWYRQAPGKEREFVAAIGYGGTTYYADSVKGRFTISRDNAKNTVYLQMNSLKPEDTAVYYCAVVDGAHSRHRYWGQGTQVTVSS
With B3, the Kd in assay [2] is 323 nM; in assay [3] it was 1900 nM; in assay [4], 353 nM.

As usually defined, the Kd is a measure of binding affinity in units of concentration.
